The record followed here is article PMC10164574, “Fission yeast Swi2 designates cell-type specific donor and stimulates Rad51-driven strand exchange for mating-type switching”.

The target of the data set is T1, Swi2N (Schizosaccharomyces pombe, UniProt Q10668 1-391).
T1 sequence: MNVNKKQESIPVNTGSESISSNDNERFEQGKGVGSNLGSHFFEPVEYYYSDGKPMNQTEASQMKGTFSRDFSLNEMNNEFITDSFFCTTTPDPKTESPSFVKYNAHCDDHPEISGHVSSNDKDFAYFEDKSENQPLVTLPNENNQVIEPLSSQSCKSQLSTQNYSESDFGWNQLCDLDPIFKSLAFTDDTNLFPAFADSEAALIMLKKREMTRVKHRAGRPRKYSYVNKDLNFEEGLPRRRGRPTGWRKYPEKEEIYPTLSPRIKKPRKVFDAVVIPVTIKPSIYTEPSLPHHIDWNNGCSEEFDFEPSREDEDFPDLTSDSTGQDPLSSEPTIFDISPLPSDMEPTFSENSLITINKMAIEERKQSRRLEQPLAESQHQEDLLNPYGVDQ
Description: EMSA; 20 mM Tris-HCl pH 7.5, 100 mM NaCl, 5% glycerol, 1 mM DTT, room temperature 10 min; 1% agarose in TAE. Conditions: protein: recombinant; tags: His-SUMO removed by Ulp1; label: 5' FAM; single strand. On the technique in general: Mobility shift assays separate free from complexed probe on a gel.

B1: FAM-H1 (59 nt) (ssDNA)
DNA: CATGGAAACGAACGAGAGAAAACAAAGGAGAAAGACTATACATTTATATTACAAAAAAA
On to B1, for which the binding result was “no binding”.
